Experimental data from patent US20120329995A1.

Molecular target: human CD3 (human) (UniProt P07766)
Assay: flow cytometry, serially diluted antibody on Jurkat cells, PE goat anti-mouse IgG

human CD3 (human), sequence (P07766 23-207): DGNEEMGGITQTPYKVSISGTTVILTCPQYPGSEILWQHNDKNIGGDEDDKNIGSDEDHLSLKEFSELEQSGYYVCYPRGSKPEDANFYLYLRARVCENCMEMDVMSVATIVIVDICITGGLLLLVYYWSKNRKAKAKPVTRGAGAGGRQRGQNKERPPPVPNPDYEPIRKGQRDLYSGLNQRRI

- antibody concentration giving comparable binding: 0.4 ng/mL
Substance: OKT3 antibody (mouse anti-human CD3, recombinant, made in 293T cells from pME-wtOKT3 HC and pME-wtOKT3 LC)
